Assays:
[1] = biological target: T1, human SIRPβ ECD recombinant protein (6×His tagged) (human, UniProt O00241 30-371); experiment: ELISA, hSIRPβ ECD
T1 construct: extracellular domain; Bought from Sino Biological; also called hSIRPβ ECD; not shown: 6×His tag
From the text: (§1) Binding activity of the purified chimeric antibodies against SIRPβ and SIRPBI was detected by ELISA assay using recombinant proteins of human SIRPβ ECD (FIGS. 3A and 3B), human SIRPBI ECD (FIGS. 3D and 3E) and FACS assay using CHOK 1 cells stably expressing human SIRPB (FIG. 3C).

[2] = biological target: T2, human SIRPβL ECD recombinant protein (6×His tagged) (human, UniProt Q5TFQ8 30-371); experiment: ELISA, hSIRPβI ECD
T2 construct: given variously as SIRPBL, SIRPBI and SIRPβI; Bought from Biointron; also called human SIRPBL ECD; human SIRPBI ECD
From the text: as §1

[3] = biological target: full length human SIRPα v1 with a small beta-gal fragment (ED) fused to its C-terminal, expressed in K562 … (human, UniProt P78324 31-504); experiment: cell-based or functional assay
[4] = biological target: T3, full length human SIRPα v1 stably expressed on CHOK1 or 293F cells (human, UniProt P78324 31-504); experiment: FACS, CHOK1-hSIRPα v1 cells
T3 construct: whole, on cells; also called CHOK1-human SIRPα v1; CHOK1-hSIRPα v1

[5] = biological target: T4, human SIRPγ stably expressed on 293F cells (human, UniProt Q9P1W8 29-387); experiment: FACS, 293F-human SIRPγ cells
T4 construct: whole, on cells

[6] = biological target: Human SIRPα v1 (antigen of the Octet and Biacore affinity measurements) (human, UniProt P78324 31-370, limits assumed); experiment: BLI (Octet), 1:1 binding model
Procedure: The purified chimeric antibodies were characterized for binding affinity against human SIRPα v1, human SIRPα v2 using Bio-Layer Interferometry technology (Octet system). The association and dissociation curves were fit with 1:1 binding model, and the Ka/Kd/KD values for each antibody were calculated.

[7] = biological target: T5, C57BL/6 mouse SIRPα ECD recombinant protein (6×His tagged) (C57BL/6 mouse, UniProt P97797 32-373); experiment: ELISA, recombinant C57BL/6 mouse SIRPα ECD
T5 construct: extracellular domain; Bought from Biointron; not shown: 6×His tag
T5 sequence (looked up): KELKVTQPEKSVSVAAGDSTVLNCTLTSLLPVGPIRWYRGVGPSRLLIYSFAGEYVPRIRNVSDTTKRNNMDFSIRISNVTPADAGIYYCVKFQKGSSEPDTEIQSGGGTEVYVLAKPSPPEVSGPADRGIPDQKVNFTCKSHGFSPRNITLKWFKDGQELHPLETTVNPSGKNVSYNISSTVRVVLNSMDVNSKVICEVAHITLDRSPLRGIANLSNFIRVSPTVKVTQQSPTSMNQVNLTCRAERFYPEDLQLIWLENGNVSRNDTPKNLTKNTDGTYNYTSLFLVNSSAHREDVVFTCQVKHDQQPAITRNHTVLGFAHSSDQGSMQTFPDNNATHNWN
From the text: Species cross reactivity of purified chimeric antibodies was detected by ELISA assay using recombinant protein of C57BL/6 mouse SIRPα ECD (FIG. 5A) and FACS assay using CHOK 1 cells stably expressing cyno SIRPα (FIGS. 5B and 5C). All antibodies as tested bind to cyno SIRPα at different levels but have no species cross reactivity against C57BL/6 mouse SIRPα.

[8] = biological target: T6, human SIRPα v1 ECD recombinant protein (tag not given) (human, UniProt P78324 31-373); experiment: competitive ELISA, mFc-CD47 ECD on coated SIRPα v1 ECD
T6 construct: extracellular domain; also called biotin labeled soluble human SIRPα v1 ECD recombinant protein; ELISA microplate coated human SIRPα v1 ECD
Procedure: (§2) Competitive ELISA assay was used to determine whether the purified chimeric antibodies can block CD47 and SIRPα interaction. Briefly, antibody and mFc tagged human CD47 ECD recombinant protein were co-incubated with ELISA microplate coated human SIRPα v1 ECD (FIGS. 6A and 6B) or human SIRPα v2 ECD (FIGS. 7A and 7B) recombinant protein. After washing, HRP labeled anti-mouse Fc 2nd antibody (Sigma) was added and incubated at 37° C. for 1 hour. Then, 100 μl/well of TMB solution (Biotechnology) was added. After incubation for 15 minutes at room temperature, the reaction was stopped by the addition of 50 μl of 1N HCl. OD 450 nm was read. Blocking ratio was determined by blockade of human CD47 ECD recombinant protein binding to ELISA microplate coated human SIRPα ECD recombinant protein. Other than 005, all antibodies as tested can block interaction between human CD47 and different human SIRPα variants.

[9] = biological target: T7, human SIRPα v2 ECD recombinant protein (tag not given) (human); experiment: competitive ELISA, mFc-CD47 ECD on coated SIRPα v2 ECD
T7 construct: extracellular domain; also called ELISA microplate coated human SIRPα v2 ECD
Procedure: as §2

[10] = biological target: T8, cyno SIRPγ ECD recombinant protein (cyno); experiment: ELISA, cyno SIRPγ ECD
T8 construct: extracellular domain

[11] = biological target: T9, human SIRPβ stably expressed on CHOK1 cells (human, UniProt O00241 30-398); experiment: FACS, CHOK1-hSIRPβ cells
T9 construct: whole, on cells; also called CHOK1-human SIRPB; CHOK1-hSIRPβ
From the text: as §1

[12] = biological target: T10, mFc tagged human SIRPα v1 ECD recombinant protein (human, UniProt P78324 31-373); experiment: competitive ELISA binning, mFc-SIRPα v1 ECD; competitor 025c
T10 construct: extracellular domain; Bought from Biointron; not shown: mouse IgG Fc (mFc) tag
Procedure: (§3) Competitive ELISA assay was used for epitope binning of purified chimeric antibodies. Briefly excessive competitor antibody and mFc tagged human SIRPα v1 ECD recombinant protein were co-incubated with ELISA microplate coated antibody. After washing, HRP labeled anti-mouse Fc 2nd antibody (Sigma) was added and incubated at 37° C. for 1 hour. Then, 100 μl/well of TMB solution (Biotechnology) was added. After incubation for 15 minutes at room temperature, the reaction was stopped by the addition of 50 μl of 1N HCl. OD 450 nm was read. Competition ratio was calculated. The antibodies that can compete each other for binding to SIRPα may have related binding epitopes.

[13] = biological target: T10, mFc tagged human SIRPα v1 ECD …; experiment: competitive ELISA binning, mFc-SIRPα v1 ECD; competitor 042c
Procedure: as §3

[14] = biological target: T10, mFc tagged human SIRPα v1 ECD …; experiment: competitive ELISA binning, mFc-SIRPα v1 ECD; competitor hu1H9G4
Procedure: as §3

[15] = biological target: T3, full length human SIRPα v1 stably …; experiment: competitive FACS, mFc-CD47 ECD on CHOK1-human SIRPα v1 cells
Procedure: Competitive FACS assay was also set up to further compare the blocking activity of the humanized antibodies and reference antibodies. Briefly antibody and mFc tagged human CD47 ECD recombinant protein were co-incubated with CHOK1 cells stably expressing human SIRPα v1 (FIG. 16A) or human SIRPα v2 (FIG. 16B). After washing, dye labeled anti-mouse Fc 2nd antibody (Sigma) was added and incubated at 37° C. for 1 hour. Fluorescence intensity was detected. Blocking ratio was determined by blockade of human CD47 ECD recombinant protein binding to SIRPα expressed CHOK1 cells. […] In particular, HEFLB doesn't work at all for human SIRPα v2.

T4 sequence (Q9P1W8 29-387): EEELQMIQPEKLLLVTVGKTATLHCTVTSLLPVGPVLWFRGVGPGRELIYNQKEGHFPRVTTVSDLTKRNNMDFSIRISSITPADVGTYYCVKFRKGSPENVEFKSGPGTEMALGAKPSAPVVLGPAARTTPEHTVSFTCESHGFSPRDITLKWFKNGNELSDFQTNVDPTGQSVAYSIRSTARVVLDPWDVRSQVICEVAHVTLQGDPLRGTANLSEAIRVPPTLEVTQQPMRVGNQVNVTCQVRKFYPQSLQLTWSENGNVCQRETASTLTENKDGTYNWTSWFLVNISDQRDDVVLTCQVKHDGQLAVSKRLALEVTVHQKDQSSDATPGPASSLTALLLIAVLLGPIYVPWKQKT
T6 sequence (P78324 31-373): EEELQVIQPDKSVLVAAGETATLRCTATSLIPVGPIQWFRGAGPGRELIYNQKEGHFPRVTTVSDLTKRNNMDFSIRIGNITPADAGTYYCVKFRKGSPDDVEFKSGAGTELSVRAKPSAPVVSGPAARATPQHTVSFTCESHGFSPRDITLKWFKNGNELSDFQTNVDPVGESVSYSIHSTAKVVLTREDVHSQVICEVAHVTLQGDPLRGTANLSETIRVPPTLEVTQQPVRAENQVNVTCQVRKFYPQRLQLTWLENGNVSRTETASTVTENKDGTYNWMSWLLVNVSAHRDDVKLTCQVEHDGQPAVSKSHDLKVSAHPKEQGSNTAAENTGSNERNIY
T10 sequence (P78324 31-373): as above
T3 sequence (P78324 31-504): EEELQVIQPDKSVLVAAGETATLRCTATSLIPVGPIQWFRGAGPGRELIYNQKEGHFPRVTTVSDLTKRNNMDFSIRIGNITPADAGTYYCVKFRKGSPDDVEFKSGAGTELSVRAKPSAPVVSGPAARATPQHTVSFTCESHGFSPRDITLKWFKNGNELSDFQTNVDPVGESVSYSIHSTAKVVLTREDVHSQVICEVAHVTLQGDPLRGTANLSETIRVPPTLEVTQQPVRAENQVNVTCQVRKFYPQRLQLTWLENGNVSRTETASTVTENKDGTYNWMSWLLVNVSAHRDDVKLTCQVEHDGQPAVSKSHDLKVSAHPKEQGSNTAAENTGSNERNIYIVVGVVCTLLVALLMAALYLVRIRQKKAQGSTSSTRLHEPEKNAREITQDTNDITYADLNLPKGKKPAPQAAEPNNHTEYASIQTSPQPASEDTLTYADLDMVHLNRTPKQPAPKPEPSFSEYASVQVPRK
Sequence of full length human SIRPα v1 with a small beta-gal fragment (ED) fused to its C-terminal, expressed in K562 … (P78324 31-504): as above
Sequence of Human SIRPα v1 (antigen of the Octet and Biacore affinity measurements) (P78324 31-370 limits assumed): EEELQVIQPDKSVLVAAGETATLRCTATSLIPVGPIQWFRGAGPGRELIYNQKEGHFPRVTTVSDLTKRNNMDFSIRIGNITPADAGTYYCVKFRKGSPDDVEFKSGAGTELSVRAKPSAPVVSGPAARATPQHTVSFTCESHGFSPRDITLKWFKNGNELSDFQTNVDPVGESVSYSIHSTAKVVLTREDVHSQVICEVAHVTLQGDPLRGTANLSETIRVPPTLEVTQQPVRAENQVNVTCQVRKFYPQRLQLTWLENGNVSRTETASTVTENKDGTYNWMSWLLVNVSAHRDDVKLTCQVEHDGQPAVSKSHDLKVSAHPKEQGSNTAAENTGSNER
T2 sequence (Q5TFQ8 30-371 limits assumed): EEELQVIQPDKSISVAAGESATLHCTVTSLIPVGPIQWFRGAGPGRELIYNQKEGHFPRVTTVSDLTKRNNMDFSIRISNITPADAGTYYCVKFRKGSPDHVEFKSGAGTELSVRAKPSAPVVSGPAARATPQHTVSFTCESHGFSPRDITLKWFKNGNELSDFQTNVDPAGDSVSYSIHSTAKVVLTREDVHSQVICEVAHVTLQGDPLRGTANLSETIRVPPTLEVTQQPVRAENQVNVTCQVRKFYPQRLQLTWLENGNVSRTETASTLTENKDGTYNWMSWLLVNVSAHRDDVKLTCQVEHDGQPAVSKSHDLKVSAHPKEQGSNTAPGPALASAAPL
T1 sequence (O00241 30-371): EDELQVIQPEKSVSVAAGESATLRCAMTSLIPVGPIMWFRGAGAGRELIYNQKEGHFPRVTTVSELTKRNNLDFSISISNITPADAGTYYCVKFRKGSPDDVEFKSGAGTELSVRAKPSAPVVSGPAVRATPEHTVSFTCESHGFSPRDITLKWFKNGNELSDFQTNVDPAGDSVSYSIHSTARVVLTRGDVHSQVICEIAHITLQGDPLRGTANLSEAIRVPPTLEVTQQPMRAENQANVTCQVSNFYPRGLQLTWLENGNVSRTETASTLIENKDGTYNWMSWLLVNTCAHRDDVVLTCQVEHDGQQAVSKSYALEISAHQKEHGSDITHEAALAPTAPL
T9 sequence (O00241 30-398): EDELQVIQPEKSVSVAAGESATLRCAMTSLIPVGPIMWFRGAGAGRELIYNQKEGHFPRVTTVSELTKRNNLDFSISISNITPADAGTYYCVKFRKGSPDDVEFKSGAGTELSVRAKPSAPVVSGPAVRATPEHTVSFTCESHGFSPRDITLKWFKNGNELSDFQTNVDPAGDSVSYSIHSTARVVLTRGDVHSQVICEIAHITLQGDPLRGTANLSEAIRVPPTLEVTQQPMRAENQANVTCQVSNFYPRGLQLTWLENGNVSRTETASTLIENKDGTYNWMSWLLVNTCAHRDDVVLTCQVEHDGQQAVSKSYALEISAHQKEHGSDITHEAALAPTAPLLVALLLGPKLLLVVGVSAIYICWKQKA

Binder	EC50 [1] [nM]	TOP OD450 [1] [OD450]	EC50 [2] [nM]	TOP OD450 [2] [OD450]	SHP-1 recruitment blocking, IC50 [3] [nM]	SHP-1 recruitment blocking, TOP blocking (%) [3] [%]	EC50 [4] [nM]	TOP MFI [4] [MFI]	EC50 [5] [nM]	TOP MFI [5] [MFI]	Kd [6] [nM]	koff [6] [s⁻¹]	kon [6] [M⁻¹ s⁻¹]	binding result [7]	IC50 [8] [nM]	TOP blocking (%) [8] [%]	IC50 [9] [nM]	TOP blocking (%) [9] [%]	EC50 [10] [nM]	TOP OD450 [10] [OD450]	further results
015c (antibody, V domains shown, also called chimeric antibody 015c) VH: EVQLQQSGVEVVQPGASVKLSCTASGFNIEAYYMHWVKQRTEQGLEWIGRIDPEDGESKYAPKFQGKATMTADTSSSTAYLQLSSLTSDDTAVYYCVRGSYEYWGQGTTLTVSS VL: QIVLTQSPAIMSASPGEKVTLTCSASSSVSSSYLYWYQQKPGSSPKLWIYSTSNLASGVPPRFSGSGSGTSYSLTISSMQAEDAASYFCYQWSSYPYTFGGGTKLEIK	0.04	2.97	0.4	3.1	0.09	73.5	1.49	80000	0.09	3300	0.338	0.000303	897000	no binding	2.32	96.4	2.45	96.7	–	–	–
042c (antibody, V domains shown, also called chimeric antibody 042c) VH: QIQLVQSGPELKKPGETVKISCRASGYTFTTYGMSWVKQAPGKGLRWMGWINTYSGVSTCADDFKGRFAFSLETSATTAYLQIHNLTNEDTATYFCARDPHSYGNSPAWFPYWGQGTLVTVSA VL: DIVMTQSQKFMSTTIRDRVSITCKASQNVGISVAWYQQKSGQSPKLLIYSASNRYTGVPDRFTGSGSGTDFTLTISNMQSEDLADYFCQQYSSYPLTFGSGTKLAIK	0.23	3.23	0.39	2.69	0.99	70	1.9	73200	–	–	9.2	0.00545	593000	no binding	3.6	97.1	4.49	94.6	20.5	1.22	EC50 [11]: 39.8 nM; TOP MFI [11]: 3910 MFI; % Competition [12]: 8.9%; % Competition [13]: 93.9%; % Competition [14]: 29.8%
059c (antibody, V domains shown, also called chimeric antibody 059c) VH: QVQLQQSGPELVKPGASVKMSCKASGYTFSEYVLSWVKQRTGQGLEWIGEIYPGTITTYYNEKFKGKATLTADKSSNTAYIQLTSLTSEDSAVYFCGRFYDYDGGWFAYWGQGTLLTVSA VL: ENVLTQSPEKMAVSLGQKVTMTCSASSSVSSSDLHWYQQKSGASPKPLIHGTSNLASGVPARFSGSGSGTSYSLTISSVEAEDAATYYCQQWSGYPWTFGGGTNLEIK	0.03	2.75	0.7	3.35	0.07	66.9	1.45	69800	34.1	2860	2.25	0.00213	944000	no binding	2.63	97	54.1	84.4	–	–	–
071c (antibody, V domains shown, also called chimeric antibody 071c) VH: QIQLVQSGPELKKPGETVKISCKASGYTFTTYGMSWVKQAPGKGLKWMVWINTYSGVPTYADDFQGRFAFSLETSASTSYLQINNLRNEDTATYFCARDPHYYGTSPAWFAYWGQGTLVTVSA VL: DIVMTQSQKFMSTTIGDRVIITCKASQIVGIAVAWYQQKPGQSPKLLIYSASNRFTGVPDRFTGSGSGTDFTLTISNMQSEDLADYFCQQYSTYPFTFGSGTKLEIK	1.53	2.98	0.3	2.66	2.97	44.5	2.6	76500	–	–	5.97	0.00327	548000	no binding	2.86	94.1	5.1	76.3	–	–	–
hu1H9G4 (antibody, V domains shown) VH: QVQLVQSGAEVKKPGASVKVSCKASGYTFTSYWITWVKQAPGQGLEWIGDIYPGSGSTNHIEKFKSKATLTVDTSISTAYMELSRLRSDDTAVYYCATGYGSSYGYFDYWGQGTLVTVSS VL: DIQMTQSPSSLSASVGDRVTITCRASENIYSYLAWYQQKPGKAPKLLIYTAKTLAEGVPSRFSGSGSGTDFTLTISSLQPEDFATYYCQHQYGPPFTFGQGTKLELK	0.03	3.22	0.24	2.74	0.1	59.5	1.93	74600	0.52	2720	3.48	0.00277	795000	–	1.91	97.5	5.74	98.2	0.48	1.81	EC50 [11]: 0.3 nM; TOP MFI [11]: 7140 MFI; IC50 [15]: 0.44 nM; TOP blocking (%) [15]: 97.2%; % Competition [12]: 14.5%; % Competition [13]: 82.6%; % Competition [14]: 90.5%

From patent US20250270315A1 (ELPISCIENCE SUZHOU BIOPHARMA, published 2025)
